Series [1] has as its target T1, Ac-YVAD-AMC (model substrate, from Enzo, Inc.).
T1 chain: YVAD

The target in series [2] is alpha-synuclein, wild-type full-length human (140 amino acids).

B1: caspase-1 (ICE; interleukin-1-beta converting enzyme), purified, activated (protein)
chain: NPAMPTSSGSEGNVKLCSLEEAQRIWKQKSAEIYPIMDKSSRTRLALIICNEEFDSIPRRTGAEVDITGMTMLLQNLGYSVDVKKNLTASDMTTELEAFAHRPEHKTSDSTFLVFMSHGIREGICGKKHSEQVPDILQLNAIFNMLNTKNCPSLKDKPKVIIIQACRGDSPGVVWFKDSVGVSGNLSLPTTEEFEDDAIKKAHIEKDFIAFCSSTPDNVSWRHPTMGSVFIGRLIEHMQEYACSCDVEEIFRKVRFSFEQPDGRAQMPTTERVTLTRCFYLFPGH
For the protein B1, the “activity against a model substrate” value in series [1] was found to be 110 µM/min/mg. In addition, in series [2], the “Western blot of ICE digested alpha-synuclein with increasing amounts of ICE (2 to 12 µg)” value was “Appearance of a smaller fragment of synuclein below 17 kD with intensity increasing with amount of ICE”; the “cleavage of alpha-synuclein in vitro (SDS-PAGE and western blot with anti-synuclein antibody)” value is listed as “Purified, activated caspase-1 does indeed cleave alpha-synuclein”.

Values taken from patent US20160143985.
